Experimental data as given in patent publication US11207289B2, “Use of benzofuran lignans to induce IL-25 expression and suppress mammary tumor metastasis” (ACADEMIA SINICA, priority 2016, dated 2021).

What was measured:
IL-25 = IL-25 expression in lung fibroblasts, 4T1 tumor resection model (IF staining, flow cytometry); assay type: in vivo, mice
Method: BALB/c mice were subcutaneously injected with 4T1-Luc2 cells (5×10^5/100 μl PBS/mouse) into the fourth mammary fat pad under isoflurane anesthesia. Tumor growth was monitored by measuring the tumor volume according to the formula: volume=length×(width)^2/2. After tumors were established (180-200 mm^3) on day 14, test mice were divided into different groups (8 mice/group) and subjected to different treatments. At 15 days post tumor cell implantation, primary 4T1 tumors in situ were surgically removed by a tumor resection process. For drug treatment, mice were administered with different agents, including vehicle-control (PBS), mouse IL-25 protein (10 μg/kg, ProSpec, Vineland, N.J.), Q2-3 (2, 20 or 100 μg/kg) or docetaxel (2 mg/kg; Sigma-Aldrich), by intravenous injection for 3 weeks (3 injections/week) post tumor resection. For in vivo neutralization of mouse IL-25 activity, mice were treated intraperitoneally with either 100 μg anti-mouse IL-25 (IL-17E) antibody (clone 35B; Biolegend) or isotype control rat IgG (100 μg; rat, IgG1κ; Biolegend) at days 0, 3, 6, 9, 12, 15, 18 post tumor resection. To detect metastasis of human MDA-MD-231-Luc2 tumor cells, nude mice were injected subcutaneously with 5×10^5 MDA-MD-231-Luc2 cells into the mammary fat pad under isoflurane anesthesia. After tumors were established (250-350 mm^3) on day 24, test mice were divided into different groups (8 mice/group) and subjected to different treatments. At 25 days post tumor cell implantation, primary MDA-MD-231-Luc2 tumors in situ were surgically removed by a tumor resection process. For drug treatment, mice were administered with PBS (vehicle-control), Q2-3 (100 μg/kg), docetaxel (5 mg/kg) or Q2-3 (100 μg/kg)+docetaxel (5 mg/kg), by intravenous injection for 3 weeks (3 injections/week) post tumor resection. To monitor the progression of mouse (4T1) or human (MDA-MD-231) metastatic tumors, test mice treated with different drugs/agents were compared for their tumor metastatic activity and survival rate aftern another 8 weeks. Bioluminescence signals from the 4T1-luc2 tumor cells in test mice were analyzed using a non-invasive IVIS imaging system (Calipers, Hopkinton, Mass.) after intraperitoneal injection of 150 mg/kg D-luciferin (NanoLight technology, Pinetop, Ariz.).
Lung tissue specimens obtained from each tumor-resected mouse were fixed with 4% formalin and embedded in paraffin. For histological comparison, 6 μm-thick tissue sections were made and stained with hematoxylin and eosin (H&E). For immunofluorescence staining, fixed tissue sections were initially immersed in boiling sodium citrate buffer (0.01 M sodium citrate buffer, pH 6.0) for 30 min Lung tissue sections were blocked with 5% nonfat milk, and incubated with anti-FSP-1 antibody (1:200 dilution; Millipore), FITC-conjugated anti-CD206 antibody (1:200 dilution; Biolegend) or PE-conjugated anti-IL-25 antibody (1:100; R&D) in 1% nonfat milk for 1 hour at room temperature. Sections were then washed with PBS containing 0.1% Tween 20. To detect primary antibodies, some sections were incubated with FITC-conjugated anti-mouse-IgG (1:200; Jackson Immunoresearch, West Grove, Pa.) for FSP-1. 4′,6-Diamidino-2-phenylindole dihydrochloride (1 μg/ml; Sigma-Aldrich) was used to stain the nuclei. Fluorescence microscopy evaluation of immunostained tissue sections was performed using a Zeiss Axiovert 200 M microscope (Carl Zeiss, Heidelberg, Germany) Images were captured with a digital camera (Orca ER, Hamamatsu) and processed using Axiovision 4.6.3 (Carl Zeiss).
For detection of myeloid derived suppressor cells (MDSCs), cells from mouse lung tissue in each group were collected and stained for 30 min at 4° C. with antibodies against specific cell markers, including FITC-conjugated anti-mouse CD11b (for cell surface), APC-Cy7 conjugated anti-mouse Ly-6C and PE conjugated anti-mouse Ly-6G, (both for intracellular staining). All three antibodies were obtained from Biolegend, (San Diego, Calif.). […]

caspases 8 and 3 = assay: Western blot of cleavage of caspases 8 and 3 in MDA-MB-231 cells; assay type: cell-based, human
Method: MDA-MB231 and MCF-7 cells were seeded in 6-well plate at 10^5 cells/well for 24 h before transfection. siRNAs used for knockdown of human IL-25 receptor (IL25-RB) were purchased from Biotools (Taiwan, ROC) as follows: IL-17RB-homo-448 (IL-25R-1 siRNA); IL-17RB-homo-519 ([…]); IL-17RB-homo-956 ([…]); negative control (Neg). At the beginning of transfection, each test IL25R siRNA oligomers (100 pmol) was diluted in 250 μl Opti-MEM I Reduced Serum Medium. Aliquots of 5 μl Lipofectamine 2000 transfection reagent (Invitrogen) were diluted with 250 μl Opti-MEM I Reduced Serum Medium. Diluted oligomers were mixed gently with the diluted Lipofectamine 2000 and incubated for 20 min at room temperature. The oligomer-Lipofectamine 2000 complexes were subsequently added to each well containing cells and medium. Cells were incubated at 37° C. for 72 h until test cells were ready to be treated with IL25 cytokine or a different CM.
Cell lysates of 3T3, WI38, NHDF, MDA-MB-231, MCF-10A and MCF-7 or the IL-25-pulled down protein lysates from 3T3, WI38 or NHDF conditioned media were resolved by SDS PAGE using 8, 10 or 15% stepwise gels. […] Loading of equal amounts of protein was assessed using the mouse β-actin protein as a reference. […] Quantification of protein in luminescent bands was performed using ImageJ software. […]

MDA-MB-231 cells = assay: MTT growth activity of MDA-MB-231 cells in fibroblast conditioned media; assay type: cell-based, human; conditions: MTT at 5 days; media applied every 24 hours; IL-25 protein 100 ng/ml
Method: (§1) M10, WI38, SKBR3, and MDA-MB-231 cells (1×10^5 cells/ml) dispensed in 96-well plates were incubated with vehicle or test compounds (Q2-3) for 24 h or 72 h in corresponding basal medium in a 5% CO2 incubator. To evaluate the effect of secreted IL-25 from Q2-3-treated fibroblasts on growth activity of mammary tumor cells, 4T1 and MDA-MB-231 cells (1×10^4 cells/ml) dispensed in 96-well plates were incubated with control medium or different fibroblast conditioned media (200 μl/ml) which was changed daily for 5 days. All treatments were performed in triplicate cell cultures. The growth activity of cells was assayed using a 3-(4, 5-dimethythiazol-2-yl)-2, 5-diphenyl tetrazolium bromide (MTT; Sigma-Aldrich) colorimetric method. The absorbance at 570 nm (A570) was measured using a multiwall scanning spectrophotometer.
(§2) To pull down and deplete IL-25 protein molecules in 3T3 or MDA-MB-231 cell conditioned media, the Dynabeads antibody coupling kit (Life Technology; 14311D) was used according to the manufacturer's recommendations, yielding 10 mg/ml anti-IL25 antibody (ProteinTech, Chicago, Ill.)-coupled beads. The rabbit IgG (ProteinTech, Chicago, Ill.) was used as an isotype control antibody. […] The antibody-pulled down proteins from 3T3-CM, NHDF-CM or WI38-CM, were detected for the content of secreted IL-25 protein in each conditioned medium using western blot analysis. […]

4T1 cells = assay: MTT growth activity of 4T1 cells in fibroblast conditioned media; assay type: cell-based, mouse; conditions: MTT at 5 days; media applied every 24 hours; IL-25 protein 100 ng/ml
Method: as §1, §2

| Molecule | total FSP-1+ER-TR7+ fibroblast population in lung (IL-25; 3 weeks post tumor resection, PBS control 5.2%) | cell population of IL-25+ fibroblasts (FSP-1+ER-TR7+IL-25+ cells) in lung (IL-25; 3 weeks post tumor resection, PBS control 16.7%) | IL-25 expression in lung fibroblasts (IF staining) (IL-25; Q2-3 100 μg/kg, 21 days post tumor resection) | cleavage of caspases 8 and 3 (caspases 8 and 3; MDA-MB-231, IL-25 100 ng/ml, 24 h) | cleavage of caspases 8 and 3 in cells treated with IL-25R siRNA (caspases 8 and 3; MDA-MB-231 treated with IL-25R siRNA) | growth activity of MDA-MB-231 cells (MDA-MB-231 cells) | growth activity of 4T1 cells (4T1 cells) |
| --- | --- | --- | --- | --- | --- | --- | --- |
| CC(=O)O[C@@]12CO[C@@H]1C[C@H](O)[C@@]1(C)C(=O)[C@H](O)C3=C(C)[C@@H](OC(=O)[C@H](O)[C@@H](NC(=O)OC(C)(C)C)c4ccccc4)C[C@@](O)([C@@H](OC(=O)c4ccccc4)[C@H]21)C3(C)C [DT, docetaxel, reference compound] | did not increase | did not increase | little or no IL-25 expression | – | – | – | – |
| IL-25: human and mouse IL-25 recombinant protein (protein, UniProt Q9H293 33-177, looked up, also mouse IL-25, human and mouse IL-25 recombinant protein) Interleukin-25: YSHWPSCCPSKGQDTSEELLRWSTVPVPPLEPARPNRHPESCRASEDGPLNSRAISPWRYELDRDLNRLPQDLYHARCLCPHCVSLQTGSHMDPRGNSELLYHNQTVFYRRPCHGEKGTHKGYCLERRLYRVSLACVCVRPRVMG | – | – | – | resulted in the cleavage of caspases 8 and 3 | not able to induce | decreased the growth activity | decreased the growth activity |
